From patent US20030119145A1
Where “and” joins values, the source holds several entries; their conditions need not be identical. Identical values can stand only once.

Assays:
cytochrome c [1] = test: cell-based or functional assay
[2] = biological target: CYP52A5A, omega-hydroxylating cytochrome P450 of Candida tropicalis (Candida tropicalis); test: cell-based or functional assay
[3] = biological target: CYP52A5A, omega-hydroxylating cytochrome P450 of Candida tropicalis
cytochrome c [4] = biological target: cytochrome c

In the case of “truncated (soluble) CPRA from Candida tropicalis, produced in Sf9 insect cells (from UniProt P37201 33-680) (enzyme)”, the Sp. Act. (reduction of cytochrome c), soluble fraction of Sf9 cells expressing truncated (soluble) CPRA (cytochrome c [1]) is reported as 8.42 µmol/min/mg and 4.4 µmol/min/mg, the specific activity (reduction of cytochrome c) relative to microsomes of cells expressing the unmodified CPR (cytochrome c [1]) is reported as 20 fold and the Enhancement (%) of hydroxylation of C14 myristic acid, 4 µl sCPR added [2] is reported as 2.4%. It also gave an Enhancement (%) of hydroxylation of C14 myristic acid, 8 µl sCPR added [2] of 3.4%, an Enhancement (%) of hydroxylation of C14 myristic acid, 16 µl sCPR added [2] of 3.4% and an Enhancement (%) of hydroxylation of C14 myristic acid, 32 µl sCPR added [2] of 8.1%. For the same molecule, the Enhancement (%) of hydroxylation of C14 myristic acid, 64 µl sCPR added [2] was 6.9%, the enhancement of formation of omega-hydroxylauric acid by CYP52A5A on addition of soluble CPR (TLC autoradiogram) [2] was 4.4 fold and the increase of omega-hydroxylauric acid formation on addition of soluble CPR in the presence of membrane associated CPR [2] was 6%. It also gave an omega-hydroxylauric acid (nmol), CYP52A5A microsomes with soluble CPR added [2] of 0.07 nmol and an omega-hydroxylauric acid (nmol), CYP52A5A/CPRA microsomes with soluble CPR added [2] of 0.115 nmol.

B1: full-length, membrane associated CPRA (NADPH-cytochrome P450 reductase) from Candida tropicalis (protein)
chain: MALDKLDLYVIITLVVAVAAYFAKNQFLDQPQDTGFLNTDSGSNSRDVLLTLKKNNKNTLLLFGSQTGTAEDYANKLSRELHSRFGLKTMVADFADYDWDNFGDITEDILVFFIVATYGEGEPTDNADEFHTWLTEEADTLSTLKYTVFGLGNSTYEFFNAIGRKFDRLLSEKGGDRFAEYAEGDDGTGTLDEDFMAWKDNVFDALKNDLNFEEKELKYEPNVKLTERDDLSAADSQVSLGEPNKKYINSEGIDLTKGPFDHTHPYLARITETRELFSSKDRHCIHVEFDISESNLKYTTGDHLAIWPSNSDENIKQFAKCFGLEDKLDTVIELKALDSTYTIPFPTPITYGAVIRHHLEISGPVSRQFFLSIAGFAPDEETKKAFTRLGGDKQEFAAKVTRRKFNIADALLYSSNNAPWSDVPFEFLIENVPHLTPRYYSISSSSLSEKQLINVTAVVEAEEEADGRPVTGVVTNLLKNVEIVQNKTGEKPLVHYDLSGPRGKFNKFKLPVHVRRSNFKLPKNSTTPVILIGPGTGVAPLRGFVRERVQQVKNGVNVGKTLLFYGCRNSNEDFLYKQEWAEYASVLGENFEMFNAFSRQDPSKKVYVQDKILENSQLVHELLTEGAIIYVCGDASRMARDVQTTISKIVAKSREISEDKAAELVKSWKVQNRYQEDVW
In the case of B1, the net counts in product (omega-hydroxylation of [14C]-lauric acid), CYP52A5A/CPRA microsomes without soluble CPR [3] is reported as 12400 net counts.

B2: soluble CPRA from Candida tropicalis produced in E. coli (pProEX-1), his-tag removed with TEV protease (protein)
chain: DTGFLNTDSGSNSRDVLLTLKKNNKNTLLLFGSQTGTAEDYANKLSRELHSRFGLKTMVADFADYDWDNFGDITEDILVFFIVATYGEGEPTDNADEFHTWLTEEADTLSTLKYTVFGLGNSTYEFFNAIGRKFDRLLSEKGGDRFAEYAEGDDGTGTLDEDFMAWKDNVFDALKNDLNFEEKELKYEPNVKLTERDDLSAADSQVSLGEPNKKYINSEGIDLTKGPFDHTHPYLARITETRELFSSKDRHCIHVEFDISESNLKYTTGDHLAIWPSNSDENIKQFAKCFGLEDKLDTVIELKALDSTYTIPFPTPITYGAVIRHHLEISGPVSRQFFLSIAGFAPDEETKKAFTRLGGDKQEFAAKVTRRKFNIADALLYSSNNAPWSDVPFEFLIENVPHLTPRYYSISSSSLSEKQLINVTAVVEAEEEADGRPVTGVVTNLLKNVEIVQNKTGEKPLVHYDLSGPRGKFNKFKLPVHVRRSNFKLPKNSTTPVILIGPGTGVAPLRGFVRERVQQVKNGVNVGKTLLFYGCRNSNEDFLYKQEWAEYASVLGENFEMFNAFSRQDPSKKVYVQDKILENSQLVHELLTEGAIIYVCGDASRMARDVQTTISKIVAKSREISEDKAAELVKSWKVQNRYQEDVW
For B2, the “specific activity in reduction of cytochrome c” value (cytochrome c [4]) was 198 U/mg.

B3: polyhistidine tagged soluble CPRA from Candida tropicalis, produced in E. coli (pET15b) (protein)
chain: MHHHHHHSSGLVPRGSHMDTGFLNTDSGSNSRDVLLTLKKNNKNTLLLFGSQTGTAEDYANKLSRELHSRFGLKTMVADFADYDWDNFGDITEDILVFFIVATYGEGEPTDNADEFHTWLTEEADTLSTLKYTVFGLGNSTYEFFNAIGRKFDRLLSEKGGDRFAEYAEGDDGTGTLDEDFMAWKDNVFDALKNDLNFEEKELKYEPNVKLTERDDLSAADSQVSLGEPNKKYINSEGIDLTKGPFDHTHPYLARITETRELFSSKDRHCIHVEFDISESNLKYTTGDHLAIWPSNSDENIKQFAKCFGLEDKLDTVIELKALDSTYTIPFPTPITYGAVIRHHLEISGPVSRQFFLSIAGFAPDEETKKAFTRLGGDKQEFAAKVTRRKFNIADALLYSSNNAPWSDVPFEFLIENVPHLTPRYYSISSSSLSEKQLINVTAVVEAEEEADGRPVTGVVTNLLKNVEIVQNKTGEKPLVHYDLSGPRGKFNKFKLPVHVRRSNFKLPKNSTTPVILIGPGTGVAPLRGFVRERVQQVKNGVNVGKTLLFYGCRNSNEDFLYKQEWAEYASVLGENFEMFNAFSRQDPSKKVYVQDKILENSQLVHELLTEGAIIYVCGDASRMARDVQTTISKIVAKSREISEDKAAELVKSWKVQNRYQEDVW
Work on B3 yielded a Sp. Act. (reduction of cytochrome c), E. coli extract (cytochrome c [4]) of 5.3 µmol/min/mg and a Sp. Act. (reduction of cytochrome c), concentrated & dialyzed purified protein (cytochrome c [4]) of 420 µmol/min/mg.

B4: truncated (soluble) CPRA from Candida tropicalis, produced in Sf9 insect cells (protein)
chain: MDTGFLNTDSGSNSRDVLLTLKKNNKNTLLLFGSQTGTAEDYANKLSRELHSRFGLKTMVADFADYDWDNFGDITEDILVFFIVATYGEGEPTDNADEFHTWLTEEADTLSTLKYTVFGLGNSTYEFFNAIGRKFDRLLSEKGGDRFAEYAEGDDGTGTLDEDFMAWKDNVFDALKNDLNFEEKELKYEPNVKLTERDDLSAADSQVSLGEPNKKYINSEGIDLTKGPFDHTHPYLARITETRELFSSKDRHCIHVEFDISESNLKYTTGDHLAIWPSNSDENIKQFAKCFGLEDKLDTVIELKALDSTYTIPFPTPITYGAVIRHHLEISGPVSRQFFLSIAGFAPDEETKKAFTRLGGDKQEFAAKVTRRKFNIADALLYSSNNAPWSDVPFEFLIENVPHLTPRYYSISSSSLSEKQLINVTAVVEAEEEADGRPVTGVVTNLLKNVEIVQNKTGEKPLVHYDLSGPRGKFNKFKLPVHVRRSNFKLPKNSTTPVILIGPGTGVAPLRGFVRERVQQVKNGVNVGKTLLFYGCRNSNEDFLYKQEWAEYASVLGENFEMFNAFSRQDPSKKVYVQDKILENSQLVHELLTEGAIIYVCGDASRMARDVQTTISKIVAKSREISEDKAAELVKSWKVQNRYQEDVW
B4 gave a Conversion (%) of C14 myristic acid, 4 µl sCPR added to CYP52A5A microsomes [3] of 12.4%, a Conversion (%) of C14 myristic acid, 8 µl sCPR added to CYP52A5A microsomes [3] of 13.4% and a Conversion (%) of C14 myristic acid, 16 µl sCPR added to CYP52A5A microsomes [3] of 13.4%. The Conversion (%) of C14 myristic acid, 32 µl sCPR added to CYP52A5A microsomes [3] was 18.1%, the Conversion (%) of C14 myristic acid, 64 µl sCPR added to CYP52A5A microsomes [3] was 16.9% and the “hydroxylation activity on addition of soluble CPR” value [3] was “increased the hydroxylation activity approximately 5-fold”. The net counts in product (omega-hydroxylation of [14C]-lauric acid), CYP52A5A microsomes with soluble CPR added [3] was 7930 net counts and the net counts in product (omega-hydroxylation of [14C]-lauric acid), CYP52A5A/CPRA microsomes with soluble CPR added [3] was 13200 net counts.
